Data published in the DeepSol protein solubility set.

Assay: soluble on expression in E. coli; label from the status in PepcDB or PDB records

Sequence | soluble on expression in E. coli
MSLNTAMAINKPKKVNKVMNYKSCFDIIGPIMIGPSSSHTAGALAIGLAARKLFGGTPEKIVIKYYESFADTHKGHGTDFAIIGGILGLAADDANVTQSIELAEEQGIEIQFLEMSEESPVKHANTACVTLSDATHEIHLTGISVGGGTIEVKYIELDGFNVQLHGPLPILLVINQEEQAMQAFKDTLQKNNIQVNAVSRYVEGNQILFIFDLDSAPISSVKEQLFSLDDTSKIILLEGGSHHHHHH | soluble
MGSDKIHHHHHHMKLHQGERVSFVKTIPSLQETEFSRLEERLCFAKHAHPTYSIGIMPLGLSLCQGEGETYFMGRHKVCVYHPGEEHTCVFEHTGGSWAYWNCYPKEEMLREYASEILGERGEPHFAKTVVEDPYAYRLFWELFDLVGKERELLALQEASLKAFSYLIAHHASPWHPSSRFLLMERAKITQAKERILEGDEVEKITLEELASLCGMSRFRFLRLFAKLEGMTPHRFLLMHKTQKAKRYLQEGCDISEAALLSGFCDQAHLSRTLRRFYGYTPRSLRS | not soluble
MGSDKIHHHHHHMEKFIESVANFIDEEDVKVLKAIGSDPIVLHSIKKIFDYPEKANKYLILLRDSPVAVYLVAKISERLSRYLEGEDEAKCFAVFLTALRELRECGDRRVLQNMFLLLKEAIERRLSDGKYEDAAKLVMEFQDFGFKSYVKKVLFFALEVSEEGDYRRAMRILELLPETDAVIDAKASVLLEWGRSLAMSNPEAGMKKIEESLRLKDTVEARLAMAEIHESMGNYEKAYFIYTSLRSLYPGIDRRIARMLMEWGEEIGDVEKLREAYNLAMGDRLLAEEIERRIKKLEAQRLSGS | not soluble
MGSDKIHHHHHHVTDHGFSFCAHAEQYAIIGSLSQLETSDNRDCDIRRPALNRCMAEKGTLRPEAAQIFQRLEALGLKQRELAQALGIEENKISKVRAGERQFKGAELLAAYEWLDQREAEAHMPRLSRVAAVGQQVIPATPVEGEVVQIQKLDLSLSMGPGTLIDGYVESELVSFDLGFVRLFTRAASDHLRLVTGIGDSMEPTLKWGDLILIDTTDRMLSKQDGIYWINLYGAAGIKRLRAIGPRTILVKSDNPGVDDQEVEAEDLRIEGRAIWATRGL | not soluble
MLCCPDPRRRGQHNNRRRNAMPKLHESRIHDLRPTQLTVGMIEVQAKKTHLAAMAPADQQAFMQAHPIPAVLGPGGQLYITDHHHLGRAALDAGVITGYFMVEADLSQHSLDDFWKAMDQNLWVHPLDEHGVRHYYASIPKHLEKLVDDPYRSLAGYVRDAGGYDKTPTAFAEFVWADFFRRSIPIEDLLADFQAAVHAALPLAKSKFAKALPGYNGKLEHHHHHH | not soluble
MGSDKIHHHHHHMLQQVPTRAFHVIAKPSGSDCNLNCDYCFYLEKQSLYREKPVTHMDDDTLEAYIRHYIAASELQNEVAFTWQGGEPTLLGLEFYRRAVALQAKYGAGRKISNSFQTNGVLLDDEWCAFLAENNFLVGLSLDGPAEIHNQYRVTKGGRPTHKLVMRALTLLQKHHVDYNVLVCVNRTSAQQPLQVYDFLCDAGVEFIQFIPVVERLADETAVRDGLKLHAPGDIQGELTEWSVRPDEFGEFLVAIFDHWIKRDVGKIFVMNIEWAFANFVGAPGAVCHHQPTCGRSVIVEHNGDVYACDHYVYPQYRLGNMHQQTIAEMIDSPQQQVFGEDKFKQLPAQCRSCNVLKACWGGCPKHRFMLDASGKPGLNYLCAGYQRYFRHLPPYLKAMADLLAHGRPASDIMQAHLMVVNK | not soluble
MLGKLPQQANDYLNSFNWERQVSHAKEKLTALTKKYRITENDIQIALDDAKINFNEKLSQLQTYMI | not soluble
MRPTDTSNFAPAEISKRKVRRVKANGRERARMHGLNNALDMLREYIPITTQHQKLSKIETLRLARNYIDALQRMLQTNEQPTPLEYAHTLANGLSQTTTNMLANLLQVQPRQLLPPSQFDIFSDPSHHQLHPSHPPPHSSFSSSSPSSSCSPPQYYYSPTQPSAAPLQGSCDPQYQQMYHQHSHQNTFNYSP | not soluble
MGSDKIHHHHHHMLRGLWGAAAGMITQQQRQEMLTNNLANVNTPGYKADQAAIRAFPNMLIAAMNTGNVPKGVAPVIGELTTGVYLQERMPNFRQGDLVETQNNTDVALLQGVMPTNEENGQPWALFYTVQNENGEVRYTRNGNFTVDGDGFLTTGDGFYVLGTDGNPLQVNNEWFNVDGDGMITDEAGAAIGQINVVVAEDPMQLVKEGNGLLRFEGDGELPTGVGNAAVNYQLQQGFIERSNVDAAQTMTEMMQAYRTFEANQQVLRAYDESLGKAVNEVGRIG | not soluble
MGSDKIHHHHHHMSTAIRYLRLYLHRPAAQGGGRRGIGYLSQYGDILRVSFDEDYIADPQRPTLSLSYRGANEADTQRILRSARDARLVRTDGRWPAYFQNLLPEGHNRDRLARERGCAPDDEFELLAAAGHDLMGALEVEPVPAQEGVPDVVRYWHTTQGLDVLEPGFVEYPVEDAASLPGVVTKFSAVQDGRRYLVKRRGAAGSVILKLPTTAHPDLVANEFTCYQLAGSLGLHCAQARIITRAEAELPEAVPLDDILAVQRFDHLADGTRVHMEEFNQALGYAPRQKYGKGLLQDWATMLRVVDRLSDQPVQDTREFLARMVAFILMGNTDAHLKNWALVYPDGHTPRLAPLYDPVCVAAFFEGATEHQYAVNRAIDRSMRALDWDALQALIKTAGLLRIPRHLALLRDLVRRAQADWPALLADAPSTLQRTVQARLAGGVALTHP | not soluble
